Legend:
[1] = target: HLA-B*15:03; test: IEDB peptide-MHC binding, purified MHC/competitive/radioactivity; filed as Kd, often an IC50 or EC50 that approximates it; ≥ and ≤ were set here for values at or beyond the usual limits of such assays; settings: source organism: Vaccinia virus WR
[2] = target: HLA-A*02:03; test: as above
[3] = target: HLA-A*68:02; test: as above
[4] = target: HLA-A*02:01; test: as above
[5] = target: HLA-A*02:06; test: as above
[6] = target: HLA-A*02:02; test: as above
[7] = target: HLA-A*26:01; test: IEDB peptide-MHC binding, purified MHC/competitive/fluorescence; filed as Kd, often an IC50 or EC50 that approximates it; ≥ and ≤ were set here for values at or beyond the usual limits of such assays
[8] = target: HLA-B*46:01; test: as above; settings: source organism: Clostridium botulinum B str. Eklund 17B (NRP)
[9] = target: HLA-B*08:01; test: IEDB peptide-MHC binding, purified MHC/competitive/radioactivity; filed as Kd, often an IC50 or EC50 that approximates it; ≥ and ≤ were set here for values at or beyond the usual limits of such assays; settings: source organism: Vaccinia virus WR
[10] = target: HLA-A*02:01; test: IEDB peptide-MHC binding, purified MHC/direct/fluorescence; filed as Kd, often an IC50 or EC50 that approximates it; ≥ and ≤ were set here for values at or beyond the usual limits of such assays; settings: source organism: Mammarenavirus lassaense
[11] = target: HLA-A*69:01; test: as above; settings: source organism: Mammarenavirus lassaense
[12] = target: HLA-B*15:01; test: IEDB peptide-MHC binding, purified MHC/competitive/radioactivity; filed as Kd, often an IC50 or EC50 that approximates it; ≥ and ≤ were set here for values at or beyond the usual limits of such assays
[13] = target: HLA-A*03:01; test: IEDB peptide-MHC binding, purified MHC/competitive/fluorescence; filed as Kd, often an IC50 or EC50 that approximates it; ≥ and ≤ were set here for values at or beyond the usual limits of such assays; settings: source organism: Escherichia coli 101-1
[14] = target: HLA-A*31:01; test: as above; settings: source organism: Escherichia coli 101-1
[15] = target: HLA-A*32:01; test: IEDB peptide-MHC binding, purified MHC/competitive/radioactivity; filed as Kd, often an IC50 or EC50 that approximates it; ≥ and ≤ were set here for values at or beyond the usual limits of such assays; settings: source organism: Vaccinia virus WR
[16] = target: HLA-B*51:01; test: IEDB peptide-MHC binding, purified MHC/competitive/fluorescence; filed as Kd, often an IC50 or EC50 that approximates it; ≥ and ≤ were set here for values at or beyond the usual limits of such assays; settings: source organism: Yersinia pestis Nepal516
[17] = target: HLA-A*03:01; test: IEDB peptide-MHC binding, purified MHC/competitive/radioactivity; filed as Kd, often an IC50 or EC50 that approximates it; ≥ and ≤ were set here for values at or beyond the usual limits of such assays; settings: source organism: Vaccinia virus WR
[18] = target: HLA-A*68:01; test: as above; settings: source organism: Vaccinia virus WR
[19] = target: HLA-A*11:01; test: as above; settings: source organism: Vaccinia virus WR
[20] = target: HLA-A*31:01; test: as above; settings: source organism: Vaccinia virus WR
[21] = target: HLA-A*33:01; test: as above; settings: source organism: Vaccinia virus WR
[22] = source organism: Hepatitis C virus (isolate BK)
[23] = source organism: Trypanosoma cruzi
[24] = source organism: Lassa virus Josiah
[25] = source organism: Vaccinia virus WR
[26] = source organism: Lassa virus GA391
[27] = source organism: Dengue virus 4 Philippines/H241/1956

AANCFGQHV gave a Kd [1] of 0.0218 µM.
AVVRFRTHF showed a Kd [1] of 0.191 µM.
In the case of CVNGVCWTV, the Kd [2, 22] is reported as 2.08 µM, the Kd [3, 22] is reported as 0.948 µM and the Kd [4, 22] is reported as 1.02 µM. The Kd [5, 22] was 2.67 µM and the Kd [6, 22] was 1.04 µM.
In the case of DLKDLEAHI, the Kd ([3]; source organism: Homo sapiens) is reported as 17.6 µM, the Kd ([4]; source organism: Homo sapiens) is reported as ≥ 83.4 µM and the Kd ([5]; source organism: Homo sapiens) is reported as ≥ 109 µM.
In the case of DVADLFPAQ, the Kd ([7]; source organism: Mammarenavirus lassaense) is reported as 1.78 µM.
Work on ELLRPTTLV yielded a Kd [2, 23] of 1.39 µM, a Kd [3, 23] of 0.087 µM and a Kd [5, 23] of 2.08 µM. It also gave a Kd [6, 23] of 4.03 µM.
Work on FANYGFTLA yielded a Kd [2, 23] of 0.0462 µM, a Kd [3, 23] of 1.64 µM and a Kd [4, 23] of 1.5 µM. It also gave a Kd [5, 23] of 0.000447 µM and a Kd [6, 23] of 1.98 µM.
In the case of FFKDGMAEV, the Kd [8] is reported as 0.398 µM.
FKVLDGSPI gave a Kd [1] of 0.000822 µM.
FMASPENVI showed a Kd [1] of 0.00638 µM.
Work on FQSMHFTDM yielded a Kd [1] of 0.00512 µM and a Kd [9] of 0.0844 µM.
With FVFSTSFYL the Kd [2, 24] was 0.051 µM, the Kd [3, 24] was 0.000508 µM and the Kd [5, 24] was 0.0137 µM. For the same sequence, the Kd [6, 24] was 0.0015 µM, the Kd [10] was ≤ 0.001 µM and the Kd [11] was 0.0012 µM.
With GLYCYFTHL the Kd [12, 25] was 0.00687 µM.
GVFYRPLHF was tested, and the Kd [12, 25] was 0.00554 µM.
HTFTAPIAK gave a Kd [13] of 0.112 µM and a Kd [14] of 0.0191 µM.
With IISSSTLYF the Kd ([12]; source organism: Vaccinia virus Copenhagen) was 0.00106 µM.
ISTKLSCHY was tested, and the Kd [12, 25] was 0.0175 µM.
In the case of KMYACKNDM, the Kd [1] is reported as 0.0429 µM.
LIRPKILSM gave a Kd [12, 25] of 0.0104 µM and a Kd [9] of 0.000548 µM.
LLCKLSCAV gave a Kd [12, 25] of 0.416 µM.
For LLHGLDFSEV, the Kd [2, 26] was 0.00357 µM, the Kd [3, 26] was ≥ 5 µM and the Kd [4, 26] was 0.0658 µM. The Kd [5, 26] was 0.0712 µM and the Kd [6, 26] was 0.117 µM.
With LLKICIKYF the Kd [12, 25] was 5.23 µM.
In the case of LLSRFFNMI, the Kd [15] is reported as 0.714 µM, the Kd [1] is reported as 0.821 µM and the Kd [9] is reported as 1.64 µM.
Work on LMVSGPNVV yielded a Kd [1] of 0.0038 µM.
Work on LPFVWAPMV yielded a Kd [16] of 0.0399 µM.
LPRPDTRHL was tested, and the Kd [2, 25] was ≥ 78.1 µM, the Kd [3, 25] was ≥ 76.9 µM and the Kd [17] was ≥ 58.2 µM. For the same sequence, the Kd [4, 25] was ≥ 78.1 µM, the Kd [5, 25] was 18.4 µM and the Kd [18] was ≥ 77.7 µM. For the same sequence, the Kd [19] was ≥ 77.9 µM, the Kd [6, 25] was ≥ 77.8 µM and the Kd [20] was ≥ 77.9 µM. For the same sequence, the Kd [21] was ≥ 77.7 µM.
Work on MKYCSYQSF yielded a Kd [1] of 0.00155 µM.
In the case of NIHTAITQV, the Kd [2, 27] is reported as 0.0261 µM and the Kd [3, 27] is reported as 0.152 µM.
NTIRNAASF gave a Kd ([7]; source organism: Bacillus thuringiensis serovar israelensis ATCC 35646) of 0.0735 µM.
